Reference: the supplement of paper PMC10065799, “High-throughput profiling of sequence recognition by tyrosine kinases and SH2 domains using bacterial peptide display” (eLife, 2023)
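Also: 11-residue human phosphosite peptides and single-mutation variants displayed on the E. coli surface, counted by deep sequencing, each peptide's frequency after selection divided by its frequency in the unselected input library; frequency after pTyr selection over input frequency; kinase dosed for 20-30% of maximal phosphorylation in three min.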

What follows are sequences tested against Hck (UniProt P08631) (assay: phosphorylation enrichment, bacterial display (enrichment ratio); higher = better substrate or ligand; peptides without Tyr show the background).
Chain of Hck (P08631 whole entry, looked up): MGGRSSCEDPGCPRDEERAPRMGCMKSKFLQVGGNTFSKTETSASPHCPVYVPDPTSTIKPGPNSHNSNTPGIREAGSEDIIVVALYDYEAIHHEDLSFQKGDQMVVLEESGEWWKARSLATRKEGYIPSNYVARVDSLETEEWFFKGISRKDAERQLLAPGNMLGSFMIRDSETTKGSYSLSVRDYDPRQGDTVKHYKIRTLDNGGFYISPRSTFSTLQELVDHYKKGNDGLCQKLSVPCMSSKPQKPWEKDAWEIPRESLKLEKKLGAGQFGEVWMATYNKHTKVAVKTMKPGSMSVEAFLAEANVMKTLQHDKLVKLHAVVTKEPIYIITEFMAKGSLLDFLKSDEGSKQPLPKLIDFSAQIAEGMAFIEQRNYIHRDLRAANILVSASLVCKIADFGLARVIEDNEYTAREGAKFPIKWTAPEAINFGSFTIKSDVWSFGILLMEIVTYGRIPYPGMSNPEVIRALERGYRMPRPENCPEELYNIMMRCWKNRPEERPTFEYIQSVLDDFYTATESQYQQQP
In the case of AEFGLYGAMVW [VSX2_Y222_R227W_YF], the phosphorylation enrichment is reported as 2.93. In the case of ILILKYPIEHG [ACTA1_Y71_T68I], the phosphorylation enrichment is reported as 0.488. In the case of VTGWGYRKLRE [F11_Y521_D526E], the phosphorylation enrichment is reported as 0.407. Sequence FCRHNYGAVES [HLA-DRB1_Y112_V114A_YF] has a phosphorylation enrichment of 0.441. In the case of SLDLSYFTTSS [EMD_Y181_P183T_YF], the phosphorylation enrichment is reported as 0.451. DEFLEYRRIVG [FAM221A_Y20_YF] showed a phosphorylation enrichment of 0.537. SSNLFYRWLTA [CNGA3_Y169_YF] was tested, and the phosphorylation enrichment was 0.557. In the case of SSENPYATIKD [MEGF10_Y1030], the phosphorylation enrichment is reported as 1.65. In the case of GVIKEYQIRQV [USH2A_Y3623], the phosphorylation enrichment is reported as 0.363. Sequence MLEAPYVDRNS [F10_Y384_V382A] has a phosphorylation enrichment of 0.497. With PKGTGYIKTEL [STAT1_Y701] the phosphorylation enrichment was 0.748. TIQRMYGCDVG [HLA-A_Y123_I121R] gave a phosphorylation enrichment of 0.45. Sequence SFCFRYRCAPR [SUMF1_Y344_A348P_YF] has a phosphorylation enrichment of 0.633. Sequence ISRVLYPNDNF [PYGM_Y281] has a phosphorylation enrichment of 0.395. CDLTDYLMKIL [ACTA1_Y190_R185C] gave a phosphorylation enrichment of 0.587. MSPPGYKLVTG [GJA1_Y286] gave a phosphorylation enrichment of 0.418. In the case of FMYKVYSDPQP [FGFR1_Y280_C277Y], the phosphorylation enrichment is reported as 0.569. LYEDCYLLGTS [ASS1_Y87_R86C] gave a phosphorylation enrichment of 1.9. With YDCKWYIPLTD [BCR_Y756] the phosphorylation enrichment was 0.571. Work on EKMWTYMRSAE [GRIA4_Y695] yielded a phosphorylation enrichment of 0.432. TMKSRYMELFD [BBS2_Y644_YF] gave a phosphorylation enrichment of 0.48. With TESNNYIFKTL [FAM83B_Y637_YF] the phosphorylation enrichment was 0.643. With TDVSLYPSGGT [TENM4_Y399] the phosphorylation enrichment was 0.409. RLEGVYGNNID [PTEN_Y46_R47G] gave a phosphorylation enrichment of 0.94. YDGGCYEQLFV [MC4R_Y41_S36Y] showed a phosphorylation enrichment of 3.08. KLQQWYREHRS [GPI_Y17] showed a phosphorylation enrichment of 0.44. APVEDYGGGGG [B4GALT6_Y382_I379V] was tested, and the phosphorylation enrichment was 0.452. With SRIWVYNHYRW [BRCA2_Y2621] the phosphorylation enrichment was 0.442. With RWGQKHMTAVV [CYBA_Y72_Y72H] the phosphorylation enrichment was 0.5. With CGTPTCLAPEV [CHEK2_Y390_Y390C] the phosphorylation enrichment was 0.436. SVIVPYEPPEV [TP53_Y220_V217I] was tested, and the phosphorylation enrichment was 0.517. For SHNKYYMLVAR [MFSD8_Y134], the phosphorylation enrichment was 0.658. For FLTLHYDAKPQ [ANG_Y38_Q36L], the phosphorylation enrichment was 0.462.

What follows are sequences tested against Jak2 (UniProt O60674) in the same assay as above.
Chain of Jak2 (O60674 whole entry, looked up): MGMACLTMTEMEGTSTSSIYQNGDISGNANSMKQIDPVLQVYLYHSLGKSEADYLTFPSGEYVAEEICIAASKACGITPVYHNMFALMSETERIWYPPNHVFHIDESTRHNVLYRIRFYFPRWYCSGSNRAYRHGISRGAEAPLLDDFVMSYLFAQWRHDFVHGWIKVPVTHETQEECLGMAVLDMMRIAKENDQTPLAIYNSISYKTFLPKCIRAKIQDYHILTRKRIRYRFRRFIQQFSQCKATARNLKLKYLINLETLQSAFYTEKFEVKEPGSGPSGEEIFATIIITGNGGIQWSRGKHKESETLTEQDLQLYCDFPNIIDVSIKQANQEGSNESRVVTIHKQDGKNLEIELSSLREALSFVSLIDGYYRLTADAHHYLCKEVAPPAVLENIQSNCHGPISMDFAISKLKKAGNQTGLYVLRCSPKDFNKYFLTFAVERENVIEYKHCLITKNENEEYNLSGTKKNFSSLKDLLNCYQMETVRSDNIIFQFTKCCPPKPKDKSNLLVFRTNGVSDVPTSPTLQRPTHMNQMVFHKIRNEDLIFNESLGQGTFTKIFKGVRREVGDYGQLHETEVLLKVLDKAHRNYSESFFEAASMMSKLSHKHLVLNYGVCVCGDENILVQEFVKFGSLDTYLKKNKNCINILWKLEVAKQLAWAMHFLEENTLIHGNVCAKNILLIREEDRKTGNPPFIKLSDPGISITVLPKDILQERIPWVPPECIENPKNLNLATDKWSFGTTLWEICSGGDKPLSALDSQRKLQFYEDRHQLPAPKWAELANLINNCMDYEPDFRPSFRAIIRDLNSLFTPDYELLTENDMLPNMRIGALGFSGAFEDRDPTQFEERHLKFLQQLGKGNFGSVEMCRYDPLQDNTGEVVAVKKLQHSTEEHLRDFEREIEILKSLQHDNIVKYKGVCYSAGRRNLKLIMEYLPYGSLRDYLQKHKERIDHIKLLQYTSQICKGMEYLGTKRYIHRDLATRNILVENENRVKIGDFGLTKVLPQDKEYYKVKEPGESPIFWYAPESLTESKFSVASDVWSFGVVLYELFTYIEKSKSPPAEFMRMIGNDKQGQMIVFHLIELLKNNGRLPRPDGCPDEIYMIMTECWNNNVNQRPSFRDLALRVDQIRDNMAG
In the case of AEFGLYGAMVW [VSX2_Y222_R227W_YF], the phosphorylation enrichment is reported as 1.38. With ILILKYPIEHG [ACTA1_Y71_T68I] the phosphorylation enrichment was 1.11. VTGWGYRKLRE [F11_Y521_D526E] was tested, and the phosphorylation enrichment was 0.579. FCRHNYGAVES [HLA-DRB1_Y112_V114A_YF] was tested, and the phosphorylation enrichment was 0.856. In the case of SLDLSYFTTSS [EMD_Y181_P183T_YF], the phosphorylation enrichment is reported as 1.04. DEFLEYRRIVG [FAM221A_Y20_YF] was tested, and the phosphorylation enrichment was 0.964. With SSNLFYRWLTA [CNGA3_Y169_YF] the phosphorylation enrichment was 0.846. Sequence SSENPYATIKD [MEGF10_Y1030] has a phosphorylation enrichment of 0.876. With GVIKEYQIRQV [USH2A_Y3623] the phosphorylation enrichment was 0.606. In the case of MLEAPYVDRNS [F10_Y384_V382A], the phosphorylation enrichment is reported as 0.739. For PKGTGYIKTEL [STAT1_Y701], the phosphorylation enrichment was 0.986. TIQRMYGCDVG [HLA-A_Y123_I121R] showed a phosphorylation enrichment of 0.789. SFCFRYRCAPR [SUMF1_Y344_A348P_YF] gave a phosphorylation enrichment of 0.811. ISRVLYPNDNF [PYGM_Y281] gave a phosphorylation enrichment of 0.675. CDLTDYLMKIL [ACTA1_Y190_R185C] showed a phosphorylation enrichment of 1.13. For MSPPGYKLVTG [GJA1_Y286], the phosphorylation enrichment was 0.686. FMYKVYSDPQP [FGFR1_Y280_C277Y] showed a phosphorylation enrichment of 0.819. LYEDCYLLGTS [ASS1_Y87_R86C] showed a phosphorylation enrichment of 1.78. YDCKWYIPLTD [BCR_Y756] was tested, and the phosphorylation enrichment was 1.68. EKMWTYMRSAE [GRIA4_Y695] gave a phosphorylation enrichment of 0.836. In the case of TMKSRYMELFD [BBS2_Y644_YF], the phosphorylation enrichment is reported as 0.71. Work on TESNNYIFKTL [FAM83B_Y637_YF] yielded a phosphorylation enrichment of 0.926. With TDVSLYPSGGT [TENM4_Y399] the phosphorylation enrichment was 0.578. For RLEGVYGNNID [PTEN_Y46_R47G], the phosphorylation enrichment was 0.557. For YDGGCYEQLFV [MC4R_Y41_S36Y], the phosphorylation enrichment was 1.21. With KLQQWYREHRS [GPI_Y17] the phosphorylation enrichment was 0.567. Work on APVEDYGGGGG [B4GALT6_Y382_I379V] yielded a phosphorylation enrichment of 0.62. Work on SRIWVYNHYRW [BRCA2_Y2621] yielded a phosphorylation enrichment of 0.95. For RWGQKHMTAVV [CYBA_Y72_Y72H], the phosphorylation enrichment was 2.7. CGTPTCLAPEV [CHEK2_Y390_Y390C] was tested, and the phosphorylation enrichment was 0.816. SVIVPYEPPEV [TP53_Y220_V217I] gave a phosphorylation enrichment of 1.08. Sequence SHNKYYMLVAR [MFSD8_Y134] has a phosphorylation enrichment of 1.14. FLTLHYDAKPQ [ANG_Y38_Q36L] was tested, and the phosphorylation enrichment was 0.669.

What follows are sequences tested against MERTK (UniProt Q12866) in the same assay as above.
Chain of MERTK (Q12866 whole entry, looked up): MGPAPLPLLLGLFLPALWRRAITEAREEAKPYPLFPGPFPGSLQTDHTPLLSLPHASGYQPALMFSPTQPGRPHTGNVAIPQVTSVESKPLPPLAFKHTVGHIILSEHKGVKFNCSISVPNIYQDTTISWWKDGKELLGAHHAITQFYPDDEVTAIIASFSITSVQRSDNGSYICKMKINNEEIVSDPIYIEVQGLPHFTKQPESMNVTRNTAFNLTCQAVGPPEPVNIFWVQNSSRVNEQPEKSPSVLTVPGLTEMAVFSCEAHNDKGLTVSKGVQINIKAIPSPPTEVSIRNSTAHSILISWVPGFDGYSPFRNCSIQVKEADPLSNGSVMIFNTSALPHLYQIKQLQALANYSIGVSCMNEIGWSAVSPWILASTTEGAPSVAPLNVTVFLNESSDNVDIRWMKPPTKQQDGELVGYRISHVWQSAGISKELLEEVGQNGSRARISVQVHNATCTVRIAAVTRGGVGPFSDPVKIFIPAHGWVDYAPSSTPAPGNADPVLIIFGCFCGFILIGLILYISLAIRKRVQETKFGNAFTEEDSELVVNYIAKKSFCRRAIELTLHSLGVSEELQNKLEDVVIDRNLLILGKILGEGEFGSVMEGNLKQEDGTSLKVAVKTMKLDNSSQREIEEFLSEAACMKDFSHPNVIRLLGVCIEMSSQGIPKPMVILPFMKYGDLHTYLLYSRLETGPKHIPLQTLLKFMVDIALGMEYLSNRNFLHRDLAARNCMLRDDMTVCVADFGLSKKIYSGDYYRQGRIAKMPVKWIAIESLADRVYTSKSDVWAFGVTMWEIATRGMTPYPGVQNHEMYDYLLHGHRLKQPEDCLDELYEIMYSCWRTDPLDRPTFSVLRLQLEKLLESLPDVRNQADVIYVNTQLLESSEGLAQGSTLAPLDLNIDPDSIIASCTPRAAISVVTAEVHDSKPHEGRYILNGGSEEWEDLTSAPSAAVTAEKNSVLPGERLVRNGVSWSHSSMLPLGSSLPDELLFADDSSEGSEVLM
Work on AEFGLYGAMVW [VSX2_Y222_R227W_YF] yielded a phosphorylation enrichment of 1.06. Work on ILILKYPIEHG [ACTA1_Y71_T68I] yielded a phosphorylation enrichment of 0.424. With VTGWGYRKLRE [F11_Y521_D526E] the phosphorylation enrichment was 0.546. FCRHNYGAVES [HLA-DRB1_Y112_V114A_YF] was tested, and the phosphorylation enrichment was 0.439. With SLDLSYFTTSS [EMD_Y181_P183T_YF] the phosphorylation enrichment was 0.371. Sequence DEFLEYRRIVG [FAM221A_Y20_YF] has a phosphorylation enrichment of 0.493. In the case of SSNLFYRWLTA [CNGA3_Y169_YF], the phosphorylation enrichment is reported as 0.532. Work on SSENPYATIKD [MEGF10_Y1030] yielded a phosphorylation enrichment of 0.506. GVIKEYQIRQV [USH2A_Y3623] was tested, and the phosphorylation enrichment was 0.359. Sequence MLEAPYVDRNS [F10_Y384_V382A] has a phosphorylation enrichment of 0.343. Sequence PKGTGYIKTEL [STAT1_Y701] has a phosphorylation enrichment of 0.694. TIQRMYGCDVG [HLA-A_Y123_I121R] gave a phosphorylation enrichment of 0.448. For SFCFRYRCAPR [SUMF1_Y344_A348P_YF], the phosphorylation enrichment was 0.73. Sequence ISRVLYPNDNF [PYGM_Y281] has a phosphorylation enrichment of 0.37. In the case of CDLTDYLMKIL [ACTA1_Y190_R185C], the phosphorylation enrichment is reported as 0.416. Work on MSPPGYKLVTG [GJA1_Y286] yielded a phosphorylation enrichment of 0.397. For FMYKVYSDPQP [FGFR1_Y280_C277Y], the phosphorylation enrichment was 0.5. With LYEDCYLLGTS [ASS1_Y87_R86C] the phosphorylation enrichment was 3.13. YDCKWYIPLTD [BCR_Y756] gave a phosphorylation enrichment of 1.51. EKMWTYMRSAE [GRIA4_Y695] showed a phosphorylation enrichment of 0.299. TMKSRYMELFD [BBS2_Y644_YF] was tested, and the phosphorylation enrichment was 0.42. For TESNNYIFKTL [FAM83B_Y637_YF], the phosphorylation enrichment was 0.664. TDVSLYPSGGT [TENM4_Y399] was tested, and the phosphorylation enrichment was 0.435. For RLEGVYGNNID [PTEN_Y46_R47G], the phosphorylation enrichment was 0.657. For YDGGCYEQLFV [MC4R_Y41_S36Y], the phosphorylation enrichment was 1.17. Work on KLQQWYREHRS [GPI_Y17] yielded a phosphorylation enrichment of 0.355. Sequence APVEDYGGGGG [B4GALT6_Y382_I379V] has a phosphorylation enrichment of 0.418. SRIWVYNHYRW [BRCA2_Y2621] showed a phosphorylation enrichment of 0.466. In the case of RWGQKHMTAVV [CYBA_Y72_Y72H], the phosphorylation enrichment is reported as 0.587. CGTPTCLAPEV [CHEK2_Y390_Y390C] showed a phosphorylation enrichment of 0.491. SVIVPYEPPEV [TP53_Y220_V217I] gave a phosphorylation enrichment of 0.447. For SHNKYYMLVAR [MFSD8_Y134], the phosphorylation enrichment was 2.9. FLTLHYDAKPQ [ANG_Y38_Q36L] was tested, and the phosphorylation enrichment was 0.301.

The sequences below were run on c-Abl (mouse) in the same assay as above.
Work on AEFGLYGAMVW [VSX2_Y222_R227W_YF] yielded a phosphorylation enrichment of 0.995. With ILILKYPIEHG [ACTA1_Y71_T68I] the phosphorylation enrichment was 0.818. Work on VTGWGYRKLRE [F11_Y521_D526E] yielded a phosphorylation enrichment of 0.588. FCRHNYGAVES [HLA-DRB1_Y112_V114A_YF] was tested, and the phosphorylation enrichment was 0.83. For SLDLSYFTTSS [EMD_Y181_P183T_YF], the phosphorylation enrichment was 0.644. With DEFLEYRRIVG [FAM221A_Y20_YF] the phosphorylation enrichment was 0.797. Sequence SSNLFYRWLTA [CNGA3_Y169_YF] has a phosphorylation enrichment of 0.665. With SSENPYATIKD [MEGF10_Y1030] the phosphorylation enrichment was 0.741. With GVIKEYQIRQV [USH2A_Y3623] the phosphorylation enrichment was 0.422. For MLEAPYVDRNS [F10_Y384_V382A], the phosphorylation enrichment was 0.689. PKGTGYIKTEL [STAT1_Y701] was tested, and the phosphorylation enrichment was 0.559. Work on TIQRMYGCDVG [HLA-A_Y123_I121R] yielded a phosphorylation enrichment of 0.775. In the case of SFCFRYRCAPR [SUMF1_Y344_A348P_YF], the phosphorylation enrichment is reported as 0.75. Sequence ISRVLYPNDNF [PYGM_Y281] has a phosphorylation enrichment of 0.602. CDLTDYLMKIL [ACTA1_Y190_R185C] showed a phosphorylation enrichment of 0.83. Work on MSPPGYKLVTG [GJA1_Y286] yielded a phosphorylation enrichment of 0.485. FMYKVYSDPQP [FGFR1_Y280_C277Y] gave a phosphorylation enrichment of 0.521. Sequence LYEDCYLLGTS [ASS1_Y87_R86C] has a phosphorylation enrichment of 1.08. YDCKWYIPLTD [BCR_Y756] showed a phosphorylation enrichment of 0.914. EKMWTYMRSAE [GRIA4_Y695] was tested, and the phosphorylation enrichment was 0.81. For TMKSRYMELFD [BBS2_Y644_YF], the phosphorylation enrichment was 0.613. With TESNNYIFKTL [FAM83B_Y637_YF] the phosphorylation enrichment was 0.762. With TDVSLYPSGGT [TENM4_Y399] the phosphorylation enrichment was 0.585. Work on RLEGVYGNNID [PTEN_Y46_R47G] yielded a phosphorylation enrichment of 0.384. Work on YDGGCYEQLFV [MC4R_Y41_S36Y] yielded a phosphorylation enrichment of 1.01. KLQQWYREHRS [GPI_Y17] was tested, and the phosphorylation enrichment was 0.548. APVEDYGGGGG [B4GALT6_Y382_I379V] showed a phosphorylation enrichment of 0.481. Sequence SRIWVYNHYRW [BRCA2_Y2621] has a phosphorylation enrichment of 0.783. RWGQKHMTAVV [CYBA_Y72_Y72H] gave a phosphorylation enrichment of 0.81. With CGTPTCLAPEV [CHEK2_Y390_Y390C] the phosphorylation enrichment was 0.759. Work on SVIVPYEPPEV [TP53_Y220_V217I] yielded a phosphorylation enrichment of 0.831. SHNKYYMLVAR [MFSD8_Y134] gave a phosphorylation enrichment of 0.6. In the case of FLTLHYDAKPQ [ANG_Y38_Q36L], the phosphorylation enrichment is reported as 0.501.
